Test results published in article PMC6969062, “Ultrasensitive nano-aptasensor for monitoring retinol binding protein 4 as a biomarker for diabetes prognosis at early stages”.

Molecular target: RBP4 (retinol binding protein 4) (Homo sapiens, UniProt P02753 19-201)
Experiment: aptamer-antibody sandwich chemiluminescence on streptavidin wells; 2 mM Mg2+, 1 mM Ca2+; linear range 0.001-2 ng/mL, LOD 951 fg/mL; Binding buffer 20 mM Tris-HCl pH 7.6, 100 mM NaCl, 2 mM MgCl2, 5 mM KCl, 1 mM CaCl2, 0.02% Tween-20; RBP4 1 h (temperature not stated), reporter antibody step 1

B1: RBA (RBP4 aptamer), biotin-T10 (ssDNA)
DNA: TTTTTTTTTTATACCAGCTTATTCAATTACAGTAGTGAGGGGTCCGTCGTGGGGTAGTTGGGTCGTGGAGATAGTAAGTGCAATCT
binding result: binds
